Measured values from paper PMC3752466 (Nature communications, 2013).
“And” between values parts separate entries of the source, which are not always exact repeats. Equal entries are not always repeated.

Target: T1, BoNT/B-HC (binding domain of botulinum neurotoxin type B, residues 857-1291) (UniProt P10844 857-1291)
T1 sequence: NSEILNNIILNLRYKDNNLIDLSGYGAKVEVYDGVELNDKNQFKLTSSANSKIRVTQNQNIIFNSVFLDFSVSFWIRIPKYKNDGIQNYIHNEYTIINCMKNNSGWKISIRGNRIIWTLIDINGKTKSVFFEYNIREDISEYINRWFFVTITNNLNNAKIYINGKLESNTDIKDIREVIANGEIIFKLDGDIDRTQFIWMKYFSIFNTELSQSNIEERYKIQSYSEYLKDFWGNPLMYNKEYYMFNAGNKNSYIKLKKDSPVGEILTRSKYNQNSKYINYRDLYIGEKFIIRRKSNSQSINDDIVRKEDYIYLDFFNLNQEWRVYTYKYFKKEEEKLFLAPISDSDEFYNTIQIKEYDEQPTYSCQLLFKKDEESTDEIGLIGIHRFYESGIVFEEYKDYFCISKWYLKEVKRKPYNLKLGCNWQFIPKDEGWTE
Test: ITC

B1: rat Syt-II peptide (residue 40-60) (peptide)
peptide: GESQEDMFAKLKDKFFNEINK
Kd: 140 nM and 180 nM
